Measured values from publication PMC2642969 (Molecular cell, 2008).
Numbering of substitutions follows the chain as printed. Numbers in names are those of the source. Where two headings read alike, the source gives them in different places. One block for each binder: values may come before it.

Legend:
[1] = biological target: T1, FLAG-dKDM4A (recombinant, Sf21) (Drosophila melanogaster, UniProt Q9V333 1-495); assay: co-IP
T1 sequence (looked up): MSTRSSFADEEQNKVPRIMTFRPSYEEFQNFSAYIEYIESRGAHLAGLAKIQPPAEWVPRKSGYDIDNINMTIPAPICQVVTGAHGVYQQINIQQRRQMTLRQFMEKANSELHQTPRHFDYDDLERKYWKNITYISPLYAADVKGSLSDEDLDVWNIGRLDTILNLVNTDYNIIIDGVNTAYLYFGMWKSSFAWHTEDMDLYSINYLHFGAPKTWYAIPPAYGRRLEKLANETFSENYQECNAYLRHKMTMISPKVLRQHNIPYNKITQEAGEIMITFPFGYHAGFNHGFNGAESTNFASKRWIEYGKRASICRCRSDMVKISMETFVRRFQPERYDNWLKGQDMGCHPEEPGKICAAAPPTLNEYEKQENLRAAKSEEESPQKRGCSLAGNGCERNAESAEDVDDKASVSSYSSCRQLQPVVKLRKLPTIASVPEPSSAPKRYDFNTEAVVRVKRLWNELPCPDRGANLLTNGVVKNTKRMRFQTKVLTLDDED

[2] = biological target: T1, FLAG-dKDM4A (recombinant, Sf21); assay: co-IP; remark: listed apart in the source

binding result [1]: binds
B1: HA-HP1a (recombinant, full-length) (natural protein, Drosophila melanogaster, UniProt P05205 1-206, looked up)
chain: MGKKIDNPESSAKVSDAEEEEEEYAVEKIIDRRVRKGKVEYYLKWKGYPETENTWEPENNLDCQDLIQQYEASRKDEEKSAASKKDRPSSSAKAKETQGRASSSTSTASKRKSEEPTAPSGNKSKRTTDAEQDTIPVSGSTGFDRGLEAEKILGASDNNGRLTFLIQFKGVDQAEMVPSSVANEKIPRMVIHFYEERLSWYSDNED

binding result [2]: binds
B2: HA-HP1a-V26M (natural protein, Drosophila melanogaster, UniProt P05205 1-206, looked up)
chain: B1 chain with V26M
